Laboratory results: patent publication US20220259301A1

B1: Risankizumab (antibody, V domains shown)
VH: QVQLVQSGAEVKKPGSSVKVSCKASGYTFTDQTIHWMRQAPGQGLEWIGYIYPRDDSPKYNENFKGKVTITADKSTSTAYMELSSLRSEDTAVYYCAIPDRSGYAWFIYWGQGTLVTVSS
VL: DIQMTQSPSSLSASVGDRVTITCKASRDVAIAVAWYQQKPGKVPKLLIYWASTRHTGVPSRFSGSGSRTDFTLTISSLQPEDVADYFCHQYSSYPFTFGSGTKLEIKR

Target: human IL-23 (human) (UniProt Q9NPF7)
Sequence of UniProt Q9NPF7 (Q9NPF7 20-189, chain 1 of 2): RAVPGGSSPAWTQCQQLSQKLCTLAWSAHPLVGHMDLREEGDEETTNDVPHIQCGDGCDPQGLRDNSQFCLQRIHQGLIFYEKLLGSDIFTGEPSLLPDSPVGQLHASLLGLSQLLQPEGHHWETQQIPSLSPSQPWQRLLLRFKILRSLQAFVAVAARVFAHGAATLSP
Sequence of UniProt Q9NPF7 (chain, as listed by the source, chain 2 of 2): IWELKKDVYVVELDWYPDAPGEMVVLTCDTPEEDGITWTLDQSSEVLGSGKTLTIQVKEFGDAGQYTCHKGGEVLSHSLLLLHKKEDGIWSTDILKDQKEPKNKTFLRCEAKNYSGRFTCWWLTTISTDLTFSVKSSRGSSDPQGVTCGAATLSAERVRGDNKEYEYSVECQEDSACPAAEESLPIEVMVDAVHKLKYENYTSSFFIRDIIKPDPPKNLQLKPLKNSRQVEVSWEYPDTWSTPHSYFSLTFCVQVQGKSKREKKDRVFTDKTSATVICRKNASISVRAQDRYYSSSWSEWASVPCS

Molecule | IL-23 stimulated IL-17 production
ustekinumab (antibody) | 167 pM
B1 | < 10 pM
